For assay [1], the target named is T1, cynomolgus monkey LAMP1 at the cell surface (cynomolgus monkey, UniProt P11279 29-417 (human entry)).
T1 construct: also called cynoLAMP1; cynomolgus LAMP1
T1 chain: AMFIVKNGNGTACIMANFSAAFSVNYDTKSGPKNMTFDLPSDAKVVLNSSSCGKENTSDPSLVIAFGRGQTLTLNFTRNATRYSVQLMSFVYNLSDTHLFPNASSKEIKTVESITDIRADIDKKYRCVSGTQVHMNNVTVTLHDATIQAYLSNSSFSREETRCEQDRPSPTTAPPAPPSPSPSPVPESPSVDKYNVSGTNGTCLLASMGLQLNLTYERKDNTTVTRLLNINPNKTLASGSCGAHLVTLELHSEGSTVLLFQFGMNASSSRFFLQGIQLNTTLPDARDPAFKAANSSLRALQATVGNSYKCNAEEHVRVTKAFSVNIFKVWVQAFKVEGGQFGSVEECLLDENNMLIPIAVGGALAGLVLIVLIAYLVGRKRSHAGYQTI
In words: flow cytometry, HCT116 stable clones. The procedure:
100 μL/well of goat anti-mouse IgG conjugated with Alexa647 (Invitrogen; # A2135) was added for 45 min at 4° C. and washed three times with PBS 1% BSA. The antibody binding was evaluated after centrifugation and re-suspension of cells by adding 200 μl/well PBS 1% BSA and read using Guava® easyCyte™ 8HT Flow Cytometry System. EC50 values were estimated using BIOST@T-SPEED software.
(A flow cytometer gives signals particle by particle.)

The target in assay [2] is T2, LAMP1_hL1_mL2_hL34_ΔGYQTI (human; mouse, UniProt P11279 29-412).
T2 construct: on cells; also called pXL5997
T2 chain: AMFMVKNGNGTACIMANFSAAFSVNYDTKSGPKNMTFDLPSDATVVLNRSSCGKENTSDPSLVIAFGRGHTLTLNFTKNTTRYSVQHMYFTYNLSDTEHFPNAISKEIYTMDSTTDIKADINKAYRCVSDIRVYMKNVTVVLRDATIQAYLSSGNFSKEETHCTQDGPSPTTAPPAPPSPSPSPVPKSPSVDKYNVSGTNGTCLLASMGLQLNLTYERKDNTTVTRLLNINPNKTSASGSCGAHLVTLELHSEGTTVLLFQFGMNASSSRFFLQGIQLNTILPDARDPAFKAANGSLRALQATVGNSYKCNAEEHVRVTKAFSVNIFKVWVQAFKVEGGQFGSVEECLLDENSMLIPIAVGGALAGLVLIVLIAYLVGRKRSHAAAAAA
In words: flow cytometry, transfected 293-F cells.

The target in another assay is T3, LAMP1_mseq6_ΔGYQTI (human; mouse, UniProt P11279 29-412).
T3 construct: on cells; also called pXL5990
T3 chain: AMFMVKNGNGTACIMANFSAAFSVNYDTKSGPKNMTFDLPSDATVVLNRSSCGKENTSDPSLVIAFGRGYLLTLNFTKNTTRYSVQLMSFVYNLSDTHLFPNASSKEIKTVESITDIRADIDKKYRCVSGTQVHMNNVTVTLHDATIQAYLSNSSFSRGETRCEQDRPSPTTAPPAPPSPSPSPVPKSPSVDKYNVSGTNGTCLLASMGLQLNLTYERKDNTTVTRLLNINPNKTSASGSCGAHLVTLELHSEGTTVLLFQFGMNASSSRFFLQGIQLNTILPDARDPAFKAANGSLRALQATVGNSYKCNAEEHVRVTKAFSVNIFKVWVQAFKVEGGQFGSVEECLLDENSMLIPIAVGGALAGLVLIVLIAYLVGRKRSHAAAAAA
In words: flow cytometry, transfected 293-F cells.

A further assay deals with T4, LAMP1_mseq11_ΔGYQTI (human; mouse, UniProt P11279 29-412).
T4 construct: on cells; also called pXL5995
T4 chain: T3 chain with Y70H, L71T, K78R, T80A, N153S, S154G, S155N, R158K, G159E
In words: flow cytometry, transfected 293-F cells.

Assay [3] deals with T5, human LAMP1 at the cell surface (human, UniProt P11279 29-417).
T5 construct: native on tumour cells (PDX, Colo205, SW480, LS174T) or from the cloned CDS NM_005561.3 in HEK293 and HCT116; signal peptide 1-28 left out; also called huLAMP1; full length human LAMP1
T5 sequence: T3 chain with Y70H, L71T, K78R, T80A, A385G, A386Y, A387Q, A388T, A389I
In words: flow cytometry, HCT116 stable clone. From the text: (§1) HCT116 stable clone was obtained as described above. HEK293 cells were infected by a lentiviral vector allowing stable integration of the human or the cynomolgus LAMP1 CDS in genomic DNA of cells. Individual clones with different densities of cynomolgus LAMP1 cell surface localization were derived from a pool of HEK293 infected cells. Protocol as described in example above. EC₅₀ values were estimated using BIOST@T-SPEED software.

Assay [4] has as its target T1, cynomolgus monkey LAMP1 at the cell …. In words: flow cytometry, HEK293 stable clone.
Source text: as §1

Where a chain is given by its changes, count along the chain named.

Consider 3 molecules from patent US20180142032A1 (Sanofi, published 2018).

B1: MAb2 (antibody, mouse IgG1, kappa)
heavy: QVQLQQSAAELARPGASVKMSCKASGYTFTSYTMHWVKQRPGQGLEWIGYFNPSSGYPEYNQKFKDKTTLTADKSSNTAFIQLNSLTSEDSAVYYCSRGYYYGSRGYALDFWGQGASVTVSSAKTTPPSVYPLAPGSAAQTNSMVTLGCLVKGYFPEPVTVTWNSGSLSSGVHTFPAVLQSDLYTLSSSVTVPSSTWPSETVTCNVAHPASSTKVDKKIVPRDCGCKPCICTVPEVSSVFIFPPKPKDVLTITLTPKVTCVVVDISKDDPEVQFSWFVDDVEVHTAQTQPREEQFNSTFRSVSELPIMHQDWLNGKEFKCRVNSAAFPAPIEKTISKTKGRPKAPQVYTIPPPKEQMAKDKVSLTCMITDFFPEDITVEWQWNGQPAENYKNTQPIMDTDGSYFVYSKLNVQKSNWEAGNTFTCSVLHEGLHNHHTEKSLSHSPGK
light: NIVLTQSPVSLAVSLGQRATISCRASESVDINGNTFMHWYQQKPGQSPKLVIYAASNIESGVPARFSGSGSSTDFTFTIDPVEADDVATYYCQQNIEDPWTFGGGTKVEIKRADAAPTVSIFPPSSEQLTSGGASVVCFLNNFYPKDINVKWKIDGSERQNGVLNSWTDQDSKDSTYSMSSTLTLTKDEYERHNSYTCEATHKTSTSPIVKSFNRNEC
notes: murine monoclonal IgG, kappa, from hybridoma; also called murine MAb2
In turn, B1 showed an EC50 in assay [1] of 6.6 nM.

B2: huMAb1_1 (antibody, human IgG1, kappa)
heavy: not shown
light: DIQMTQSPSSLSASVGDRVTITCKASQDIDRYMAWYQDKPGKAPRLLIHDTSTLQSGVPSRFSGSGSGRDYTLTISNLEPEDFATYYCLQYDNLWTFGGGTKVEIKRTVAAPSVFIFPPSDEQLKSGTASVVCLLNNFYPREAKVQWKVDNALQSGNSQESVTEQDSKDSTYSLSSTLTLSKADYEKHKVYACEVTHQGLSSPVTKSFNRGEC
notes: humanized, VH1-huIgG1 and VL1-huCk
B2: the binding result (in assay [2]; with LAMP1_mseq6_ΔGYQTI; in the assay with LAMP1_mseq11_ΔGYQTI) was “no binding” throughout.

B3: MAb3 (antibody, V domains shown)
VH: QIQLVQSGPELKKPGETVKISCKASGYIFTNYGMNWVKQAPGKGLKWMGWINTYTGESRYADDFKGRFALSLETSASTAYLQINNLENEDMATYFCAREDYYGNSPWFFDVWGAGTTVTVSS
VL: DIQMTQTTSSLSASLGDRVTISCNASQGINKYLNWYQQKPDGTVKLLIYYTSTLHSGVPSRFSGSGSGTDYSLTINNLEPEDIATYYCQQYTKLPFTFGSGTKLEIK
notes: murine monoclonal IgG, kappa, from hybridoma; also called murine MAb3
For B3, the EC50 came to 7.6 nM in assay [3] and 4 nM in assay [4].

A word on the EC50: it is the concentration giving half of the maximal effect.
